# Bridges are numbered along the chain shown (N, C = ends). Primed or numbered codes have the meaning given here. Where no end group is shown, it is not given here. The star is where a group is joined. Biotin = O=C1N[C@H]2[C@H](CS[C@H]2CCCCC(=O)*)N1; PEG4″ = 4(ethylene glycol)
# Molecular target: T1, Human Nectin-4 (human, UniProt Q96NY8 32-349, limits assumed)
# T1 construct: Protein immobilised on the SPR chip; also called target protein
# T1 sequence: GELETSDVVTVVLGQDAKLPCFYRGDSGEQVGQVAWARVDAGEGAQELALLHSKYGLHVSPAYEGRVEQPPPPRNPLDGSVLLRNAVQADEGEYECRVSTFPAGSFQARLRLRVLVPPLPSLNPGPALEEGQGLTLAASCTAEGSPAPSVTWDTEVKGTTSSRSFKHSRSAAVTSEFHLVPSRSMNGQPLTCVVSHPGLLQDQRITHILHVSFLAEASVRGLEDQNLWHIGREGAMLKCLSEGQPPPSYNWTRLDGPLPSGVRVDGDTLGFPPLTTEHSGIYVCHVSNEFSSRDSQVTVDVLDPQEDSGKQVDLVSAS
# Experiment: Table 2B (DELFIA or SPR)
row,Binder,Kd
1,"{Biotin-PEG4″}-CEYDEEFFTALKRLRGGDICEYIQASFQYLPGLCIEEILDNLGCS-OH (designed binder, disulfide 1-34, 20-44) [C178]",1.4 nM
2,"{Biotin-PEG4″}-CEYDEEFFTALARLRGGDICQYIQAKFAYVPGLCIEEILDNLGCS-OH (designed binder, disulfide 1-34, 20-44) [C155]",1.1 nM
3,"{Biotin-PEG4″}-CEYDEEFFTALASLRGGDICYYIQAKFQYLPGLCIEEILDNLGCS-OH (designed binder, disulfide 1-34, 20-44) [C161]",7.5 nM
4,"{Biotin-PEG4″}-CDYDEEFFTALARLRGGDICEYIQAKFQYLPGLCIEEILDNLGCS (designed binder, disulfide 1-34, 20-44) [C141]",0.64 nM
5,"{Biotin-PEG4″}-CEYDEEFFTALKRLRGDDICEYIQASFQYLPGLCIEEILDNLGCS-OH (designed binder, disulfide 1-34, 20-44) [C181]",3 nM
6,"{Biotin-PEG4″}-CEYDEEFFTALARLRGADICYYIQAKFQYLPGDCIEEILDNLGCS (designed binder, disulfide 1-34, 20-44) [C140]",1.1 nM
7,"{Biotin-PEG4″}-CEYDEEFFTALSRLRGGDICYYIQQAFQYLPGLCIEEILDNLGCS (designed binder, disulfide 1-34, 20-44) [C135]",5.42 nM
8,"{Biotin-PEG4″}-CEYDEEFFTALKRLRGDDICSYIQASFQYLPGLCIEEILDNLGCS-OH (designed binder, disulfide 1-34, 20-44) [C182]",3 nM
9,"{Biotin-PEG4″}-CEYDEEFFTALARLRGGDICYYIQAYFQYLPGLCIEEILDNLGCS-OH (designed binder, disulfide 1-34, 20-44) [C165]",4.1 nM
10,"{Biotin-PEG4″}-CEYDEEFFTALARLRGGDICYYILAKFQYLPGECIEEILDNLGCS (designed binder, disulfide 1-34, 20-44) [C145]",1.3 nM
11,"{Biotin-PEG4″}-CEYDEEFFTALKRLRGDDICYYIQASFQYLPGLCIEEILDNLGCS-OH (designed binder, disulfide 1-34, 20-44) [C180]",2.7 nM
12,"{Biotin-PEG4″}-CEYDEQFFTALARLRGGDICYYILAKFQYLPQLCIEEILDNLGCS (designed binder, disulfide 1-34, 20-44) [C152]",0.85 nM
13,"{Biotin-PEG4″}-CEYDEEFFTALARLRGGDICQYIQAKFQYLPALCIEEILDNLGCS (designed binder, disulfide 1-34, 20-44) [C153]",0.56 nM
14,"{Biotin-PEG4″}-CEYDEEFFTALARLRGGDICDYIQAKFQYLPGLCIAEILDNLGCS-OH (designed binder, disulfide 1-34, 20-44) [C157]",1.1 nM
15,"Ac-CEYDEEFFTALKRLRGGDICYYIQKAFQYLPGLCIEEILDNLGCS (designed binder, disulfide 1-34, 20-44) [C120]",2.11 nM
16,"{Biotin-PEG4″}-CEYDEAFFTALARLRGGDICQYIQAKFQYLPGLCIEEILDNLGCS-OH (designed binder, disulfide 1-34, 20-44) [C151]",0.68 nM
17,"Ac-CEYDEEFFTALKRLRGGDICYYIQAKFQYLPKLCIEEILDNLGCS (designed binder, disulfide 1-34, 20-44) [C116]",0.78 nM
18,"{Biotin-PEG4″}-CEYDEEFFTALARLRGGDICEYIQAKFQYLPGLCIQEILDNLGCS (designed binder, disulfide 1-34, 20-44) [C148]",0.82 nM
19,"{Biotin-PEG4″}-CEYDEEFFTALKRLRGGDICYYIQASFQYLPGLCIEEILDNLGCS (designed binder, disulfide 1-34, 20-44) [C111]",4.32 nM
20,"{Biotin-PEG4″}-CEYDEQFFTALARLRGGDICEYIQAKFQYLPGLCIEEILDNLGCS (designed binder, disulfide 1-34, 20-44) [C146]",0.54 nM
21,"{Biotin-PEG4″}-CEYDEEFFTALARLRGSDICLYIQAKFQYLPGLCIEEILDNLGCS-OH (designed binder, disulfide 1-34, 20-44) [C156]",1.1 nM

row,Binder,Kd
1,"{Biotin-PEG4″}-CEYDEEFFTALARLRGGDICYYIQAKFQYLPGECIEEILQNLGCS-OH (designed binder, disulfide 1-34, 20-44) [C142]",0.81 nM
2,"{Biotin-PEG4″}-CEYDEEFFTALKRLRGGDICYYIQAKFQYLPKLCIEEILDNLGCS (designed binder, disulfide 1-34, 20-44) [C119]",0.95 nM
3,"{Biotin-PEG4″}-CEYDEQFFTALKALRGGDICYYIQASFNYLPDLCIEEILDNLGCS (designed binder, disulfide 1-34, 20-44) [C115]",6.46 nM
4,"{Biotin-PEG4″}-CEYDEEFFTALARLRGGDICYYIQAKFQYLPGLCIEEILDNLGCS (designed binder, disulfide 1-34, 20-44) [C127]",1.27 nM
5,"{Biotin-PEG4″}-CEYDEEFFTALKRLRGGDICYYIQKAFQYLPGLCIEEILDNLGCS (designed binder, disulfide 1-34, 20-44) [C123]",1.43 nM
6,"Ac-CEYDEEFFTALARLRGGDICYYIQAKFQYLPGLCIEEILDNLGCS (designed binder, disulfide 1-34, 20-44) [C124]",1.1 nM
7,"{Biotin-PEG4″}-CEYDEEFFTALKRLRGGDICSYIQASFQYLPGLCIEEILDNLGCS-OH (designed binder, disulfide 1-34, 20-44) [C179]",1.8 nM
8,"{Biotin-PEG4″}-CEYDGEFFTALARLRGADICEYIQAKFQYYPGLCIEEILDNLGCS-OH (designed binder, disulfide 1-34, 20-44) [C144]",3.7 nM
9,"{Biotin-PEG4″}-CEYDEEFFTALARLRGADICDYIQAKFQYLPGLCIEEILDNLGCS (designed binder, disulfide 1-34, 20-44) [C147]",0.69 nM
10,"{Biotin-PEG4″}-CEYDEEFFTALKRLRGGDICYYIQASFQYLPGECIEEILDNLGCS-OH (designed binder, disulfide 1-34, 20-44) [C177]",2 nM
11,"{Biotin-PEG4″}-CEYDEEFFTALARLRGGDICYYIQAYFQYLPGLCIEEILDNLGCS-OH (designed binder, disulfide 1-34, 20-44) [C174]",4.1 nM
12,"{Biotin-PEG4″}-CEYDGEFFTALARLRGGDICQYIQAKFQYLPGLCIEEILDNLGCS-OH (designed binder, disulfide 1-34, 20-44) [C158]",1.1 nM
13,"{Biotin-PEG4″}-CEYDEEFFTALARLRGGDICYYIQAKFQYLPKLCIEEILDNLGCS-OH (designed binder, disulfide 1-34, 20-44) [C166]",0.75 nM
14,"{Biotin-PEG4″}-CEYDEEFFTALARLRGGDICEYIQAKFQYLPKLCIEEILDNLGCS-OH (designed binder, disulfide 1-34, 20-44) [C167]",1.2 nM
15,"{Biotin-PEG4″}-CEYDEEFFTALARLRGGDICSYIQAKFQYLPKLCIEEILDNLGCS (designed binder, disulfide 1-34, 20-44) [C168]",0.9 nM
16,"{Biotin-PEG4″}-CEYDEEFFTALARLRGGDICDYIQAKFQYLPKLCIEEILDNLGCS (designed binder, disulfide 1-34, 20-44) [C169]",0.74 nM
17,"{Biotin-PEG4″}-CEYDEEFFTALAQLRGGDICYYIQAKFQYLPGLCIEEILDNLGCS-OH (designed binder, disulfide 1-34, 20-44) [C162]",8.8 nM
18,"{Biotin-PEG4″}-CEYDEEFFTALARLRGGDICYYIQAKFAYLPALCIEEILDNLGCS (designed binder, disulfide 1-34, 20-44) [C154]",0.94 nM
19,"Ac-CEYDEEFFTALKRLRGGDICYYIQASFQYLPGLCIEEILDNLGCS (designed binder, disulfide 1-34, 20-44) [C108]",5.78 nM
20,"{Biotin-PEG4″}-CEYDEEFFTALARLRGGDICEYIQAKFQYLEGLCIEEILDNLGCS-OH (designed binder, disulfide 1-34, 20-44) [C150]",1 nM

# — US20260151519A1 (AKTIS ONCOLOGY, published 2026)
